Experimental data from patent CN111087470A.

Molecular target: 人CD47 (human) (UniProt Q08722)
Assay: flow cytometry on red blood cells, commercial B6H12.2 as comparison

结合率: 99.2%
B1: 商品化抗CD47抗体B6H12.2 (antibody, from another filing)
scFv: EVQLVESGGDLVKPGGSLKLSCAASGFTFSGYGMSWVRQTPDKRLEWVATITSGGTYTYYPDSVKGRFTISRDNAKNTLYLQIDSLKSEDTAIYFCARSLAGNAMDYWGQGTSVTVSSGGGGSGGGGSGGGGSDIVMTQSPATLSVTPGDRVSLSCRASQTISDYLHWYQQKSHESPRLLIKFASQSISGIPSRFSGSGSGSDFTLSINSVEPEDVGVYYCQNGHGFPRTFGGGTKLEIKEQKLISEEDL
